Measurements published in the DeepSol protein solubility set.

Test: soluble on expression in E. coli; label from the status in PepcDB or PDB records

Soluble on expression in E. coli, not soluble:
MGSDKIHHHHHHGADFVKGDRTFAADAELGATVTTGNTETTSLKGRLDMKHELGNWENQYLLEALYKEDSGEETGKRYYGLVQGNYKFSDVNYMFANANHEIDPFTGFDSKSTISAGYGHKFVDTEKTTFAVEVGPGFQYKRLDDESAAEAGYDTEESWVAHGVMNFETEITDNSKFKQLFVADYGESLEGRSETSITANIVGALAMKFAVIVRYNSEPLDNKKSTDTETNMTLLYSF
MGSDKIHHHHHHGQYIKKETVNSQVYAVIYAEGLAGSAQWVSGFKMMKNDATIRHQVSRGNGGNPIVNDRIPMRFIIAPTDVANVTWMQAEGAGDGNGNLNADFRSTAATGCRSYKIAGDPNRKWRVPTQRELQLMWLFREPVGVIYPAAQMENVSSKIYWAATEEDAANAWYFDFKQGVPQCSWQLKTTSSNVRCVSDY
MGSDKIHHHHHHHILNKKSYKNGYDNISDTDSVYFNGVEKYARFADFPVQINIMQKFDYTLDQLMLRDDYEISLEEWSSILFQIIFALAVAQKEYSFAHNDIHSDNVMFSNTKEPYIYYHINDTIYKVPTFNRVAKLIDFARGTFKVDGKWYISDVFENGGEADGQYEYDLNDFKPNHSFDLARLASSIIDNVNVPEIEDILRTWIKTTSGYDVMEDKDTFDIYIKIAKECFNAVPTKVIKHKLFQQFKITKKQKPNNTYVYYY
MGSDKIHHHHHHKDDDNVETGAFDPSKPVAISDFTPKEGGAYQKLLIYGENFGTDVSKVKVKIGGKDAIVINVKSTYVYCFVPSGAFSGEIEITVGEGENAVTTTASTTFSYEKKMVVGTLCGYRNNRDDQGWRDGPFDGPEGVKCCGFSDNGRLAFDPLNKDHLYICYDGHKAIQLIDLKNRMLSSPLNINTIPTNRIRSIAFNKKIEGYADEAEYMIVAIDYDGKGDESPSVYIIKRNADGTFDDRSDIQLIAAYKQCNGATIHPINGELYFNSYEKGQVFRLDLVDYFKTIKNGGSWDPIVKNNPNTFKQLFTIADPSWEFQIFIHPTGKYAYFGVINNHYFMRSDYDEIKKEFITPYNFVGGYKQSGYRDDVGTEARMNNPCQGVFVKNPDYTGEEEYDFYFVDRLNFCVRKVTPEGIVSTYAGRGASTSLADGNQWGTDDGDLREVARFRDVSGLVYDDVKEMFYVHDQVGHTIRTISMEQEENVAGDENIPEDESTVESNE
MGSDKIHHHHHHKITQDDLKQLDGNLTPLGAERAANKDGTIPAWTGKWLGAPTGVAYKAGERYQDPYADEKPLYVITAQNMAQYDKQLTDGLKALFKKYPETFKMPIYATHRDFRYDDGTYKAIRTYAPQIEMLGEGNGVKNSPPTLPYPIPKTGLELLWNLRFASAIESERAVYDQAVVYADGKVAWGKVKYEIWSPKDGQHFDAKAPMNARAFYRMYTELPLRDRGSIITGYTVYDSPEPDSNRAWSYNPGTRRVRQAPEYGYDQPFGPGGFRTVDDDHFFNGSPERYDWKIVGKRELYVPYNNYRMSSPSIKYQDLLTKGHADPSNMRYELHRVWVLEATLKQGFRHQYAKRIIYIDEDSWYGVLADNYDSRGQLWRTNIQANVYAYDAKRFYPTAVFFHDLISGAYLADRLTNEGQPPRLNSEPKYVEAYFSPDAARGAGN
MGSDKIHHHHHHKSTFKQELAVGASFGLNFSSVSFAPKVPTKMKLGFNGGATIRWNTEPNLGIQAELNFTQHGWEEKFEEKPQYKYSRTVNYMELPFLTHIHFGSKRVRVFVNLGPKIGYALSESTESNLNGENPNANRPDEQHTLEVQKKFDWGLCGGPGIELRTGIGSFLLEGRYYYALGDMFNSRKGDTFSKSSSQIISAKLTYLIPIFSK
MGSDKIHHHHHHLAKAELTQIPVSQMVIGLTVKLPLSWTNHPFFRSKVKLEQQVQIEMIKGLDVSFVYVIEGHDLLPHVSEPVEIEQPEEVVEQEIDYRPLAKKSMRISQQRFVKSVNDSRTVFGKIVSDPEGAYREAATLVEDLVDHLYESETPQLTIVGSGEIDVSVTQHGISVAVLSMMIAHSLVLSKKDVRDIALGSLFHDIGKLKVPDAIRRKKRGDLSDHEINFLKMHPNFGYDMLNRTGLFPEAMLDIVLHHHEFIDGSGFPNQLTEAKILLTTQVVSLANDYETLLNLHRTPQIALGILFKTHSGKHADNLIAVLVKILGIYPPGTIVRLTDDSIAKVMMTTADVKQPHVWSCNLSGGEPSFRFLINEDVQVQEVMKLDELTDGAVKTLQANNPISFYFNNFDH
MGSDKIHHHHHHLEKAALILEGGALRSFFTSAVLDYFLEKQMDFEYIHGVSAGTMAAMNYISKQKRRSADVNLHFLHDKRYIGFNNLIRNGGIFNLDFLFSPECYDYSPFDYKAYNESKQIFEITATNVLTGKADIFRKTDTDGQEEAVKASASMPLVSDIRVVNHQPYLDGGIADSIPFRRAQELGYEKIVVVLTRDISYRKPENSRAMNRLVKFRYRDFPRFVQAFADRPQQYNRSLAEIERLEREGKIFVIRPQEPVSVSRVERDDKKLMALYEKGTEVIQNQFADLQKYLAQ
MGSDKIHHHHHHLKKQAVVIGAGLAGMSAAIRLAGDGYEVTMLEQNGNVGGKLNQRSGQGFTFDTGPSILTMPWVLEQLFTSVHRRLDDYLEIERIEPQWRTFFEDGTQLDVKGDLPGMLEEFKKVSDQADFVELFSYSKKMYDLCLDSFYKYSLEDLKDLKKYHTMSELLKMDPLNTVASGTKKHLNNKYLEQLFNYMVMYVGSNPYEAPAVFNQMIYVQMGLGIYYVKGGMYNIARAMKTVLDELRVTIHVNTPVARVVTEGKRAIGVETTDGTFYPADVVVSNLEVIPTYQHLISEKKGPKQAKKLNQSFVPSVSGLVLLLGVNREYKDLKHHNFFFSDDPEREFAQMFKDGVPPEDPTIYVGVSSKSDASQAPEGKDNLFVLTHVPPLTKQDGKTDWDAYREVVLDKLERMGLTDLRESIEFEYRFTPEDLKSLYGPNGGSIYGVAADRKKNGGFKIPSKSDLYEGLYFVGGSTHPGGGVPMVTLSGQLTADLIQKHEKVKA
MGSDKIHHHHHHLKNELAVIDIGSNSIRYVIFHPIDSGRYIEKINVKVVARLSAHIDAEGALDSVGIRLLCETLQRFHEIGITHHVEETICVATAAIRNASNRQDIVHAVEQETPFTMRVLSDEQEAYYGYFAIINSTFLTDGYSVDIGGGSMEVTLIENREMIAYHSFPFGAVTLTRQFLSGETMTSGEQKKLIKFLREQFDEIPWLKNKKLPLIGVGGSARNFVRIHQSTLDYPLHGIHQYQVRSKELGKLIDELEDKAPKQLMKVEGLSKDRVDIFLPALIAIHELALHIEAEQFVMSNYGLREGLVYEYDLHEQEQRRIENVREESLYQLESDYKVNRDRMNYLGTIAKSIYRQLVTLDIIPNRAADLRLLDSASRLLYCGQYINPDTRSNQTFYLLTNTDLKGMTHKDRLALALVSSYSSSKRIQQLLKPFKDWFTDKSIERFDLLGSILKLTEALDVTERRAVDSLEIALEKDKKDLRIILDTGDHDYGFEVEKAEKQKKHLERIIDRSIQFDNKGGGLT
MGSDKIHHHHHHLNNQIKIFEGNKIRSIWDNEKEEWYFSVVDVVAVLTESKDPQVYWRVLKKRLKEEGNKTVTNCNALKMKAADGKMRLTDVADMQGIFRIIQSVPSPKAEPFKMWLAEVGKERIDEIIDPELTIDRALETYLKKGYSREWINQRLQAIQVRKELTDTWQDHGVEKGKEYAILTNEITKAWSGMTTREYKDLKGLKKENLRDNMSTLELVLNMLAEATTTELTNATHPQGLEENKKVAKRGGSIAGNARKEIEQETGKSVITSKNAIDFVKLIEDVSSKEFEDKDKKDKD
MGSDKIHHHHHHLRIEQKLWRENTGWSDLSPQVDGLMPQLLIVFGTRKYLQEEVRFEEIKGFYPGAHIFGCSTAGEICATNVFEDALAITALEFEHTRIESRQIHLSQVQNSFQAGEYLASSLTHDDLSHVLVLSDGLHVNGSELLQGLTSSLPPGIAITGGMAGDGVSFEETLVFLDAPPTPDTIAVLGFYGNHLRVGYGSMGGFDPFGPKRLITRSAANVLYEMDGRSALELYKKYLGEHAEGLPATGVFFPLSISGEEVAESLVRTILAVNEEEQSLTFGGDVPTGAYARMMKANLDRLIDGAVTAAESILSVVNNASPELAILISCFGRRSILKQRTEEEVEAVSDVFGSGCMLTGFYSYGEISPFKPGEKPEFHNQTMTITTFREV
MGSDKIHHHHHHLTRREVVGLKLGDLMPRDLLKQELFVQDLKSHINDNVEIILKIRSKKLQETKDSKKFLIMTLEDRTGTVRAVDWYNAELNDQRLKEGNVVRVKGRVVFFENRIQINVDNDYGAIKILKSDEYDYTKFVAQSKKDLEILKKKLFVLLDQIKDQHYKKLLKAFFENKEFSEKFFRSPAGMRVHHAYIGGLLEHSVTVAEICKEISKYYSLDRDLLITGALLHDVGKVEEYRITESGIEVTTEGELKGHIAIGAAMVREMAKKLSIPEHKILELEHIILSHHGELEWGSPVVPKTIEALIVHHVENLDSKIARFIEVMESSESNQGWTEYDRNLGRRIFLRGGGTIVSLTV
MGSDKIHHHHHHLTVPKKLLLSDLLKHNVRCENGIDHGPVITPWMHPPVHRILGFISRPSNLRLEREVWRLDQLKGINQQEVYVKGVCSVSDEQTLDRFPTLMNANVFNKSGQKIGLIADFLFEPKKGNIQYYLVSRSNPLIPGTSRWLLSIDQIIDKQPGSISCDIETFEDLPIQKASLKEEFLSKSRKWKAQFQDLTYNASDKLEGWIDDQISESDNDSYEMLNDDPSYDDWIDNLDIDSSEEFNRMNKSKKNTNSTNERDLDPWI
MGSDKIHHHHHHLYSFTIASDTIELVKSLHYSILVLNMEAEEMFSKKQDPFAVKLSEIAGHLQRTSQFFVDFKINGIADVKEFAHKVKDFETAGDDLMHQLIIDLNNAFITPIDREDLLALANSLDDVLDGFEECSAIFEIYNIVQADEHMIRFVDEIHIAVNELALSMDLLVARKLQPMREHVIKVKEQETICDNLRRKSIKALFATETDPIKIIQYKEIYESLESIADYCQDAANVIETIIMKNA
MGSDKIHHHHHHMAAEALADEHLVMLAYRDPAIGDHIDVQKVRLPFRWEFDLPTIFSLVRLVWRKKIDILIPTKRKDYVLAGLVCRLTGAANILRLGIDRPLKNTPVQRLIYGWLADGIIVNADKIRRTLALSPWIDPDKVRVIYNGIDREKLEPDSVLPCKKPFSFTIGAAGALIPRKGFDYLIRSFARFSAGSNEITDAGLVIAGTGPERESLEKLAADLGISGRVRFTGHLTNPYPVMRACDLFVSASTSEGLANVLLESMALHCVPVSTLSGGADELIEDGRNGFLVRYGDEKRLAEIFSELYKNPGKIASVAANAHQTIMQRFSIELMRKDLFEFCSEINDRKKGT
MGSDKIHHHHHHMAEGSSSSSLTRLMSILDIFTETRPEWSSDDMMTELGYPRPTLYRYLKVLTDAGMLASNGHGIYTLGPKVVEMDHLLRLSDRLVAIGRPVVAQLTEQYACTAFLVRWYRNRLLCMHSETSLEAPLSSYPRGRVMPMNRGAIARTILAHLQSRKARKIIESFAPEGPEDARKAYIAEQAAALRSVRRNGYAIAFGEVTPGVVGVASPIFDEAAEPAGALCMTMRQEDCPHELRTLITQAVPAAANSITVTLRQSRHTGTDHTHLPLQEEVKDR
MGSDKIHHHHHHMAFIQPDLQFNPDTLDNLVIGIAADMGEHDSGAHHHSKAQLLYASAGCMRFYLADTQVVLPPTRAAWLPAGVVHHVTMRNVAAYRSLYFEPETVASLPSRVTIFHVNPLLKALIDTMSFWPWDKPRQSQHNAFSLLCEELENATAENLVLPLPQDKRLKTWLKQLQQKKQPANLKKMAIEIGASERTISRIFNAQTGMAYQAWRQQWRLLSAIEQLAAGASVAQVGFNLQFSSDSAFISFFKQYTGTTPAQYFKSPSV
